Source: paper PMC9253516

T1: Borealin (endogenous), Q53HL2
T1 chain: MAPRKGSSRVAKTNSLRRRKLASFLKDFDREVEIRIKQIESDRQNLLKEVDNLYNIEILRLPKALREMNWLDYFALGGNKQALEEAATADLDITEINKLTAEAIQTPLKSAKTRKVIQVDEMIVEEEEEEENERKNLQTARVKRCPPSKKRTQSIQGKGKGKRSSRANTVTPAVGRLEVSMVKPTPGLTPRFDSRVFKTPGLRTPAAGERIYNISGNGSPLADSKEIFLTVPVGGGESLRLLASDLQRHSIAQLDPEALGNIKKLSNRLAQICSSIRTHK

T2: Aurora B (endogenous), Q96GD4
T2 chain: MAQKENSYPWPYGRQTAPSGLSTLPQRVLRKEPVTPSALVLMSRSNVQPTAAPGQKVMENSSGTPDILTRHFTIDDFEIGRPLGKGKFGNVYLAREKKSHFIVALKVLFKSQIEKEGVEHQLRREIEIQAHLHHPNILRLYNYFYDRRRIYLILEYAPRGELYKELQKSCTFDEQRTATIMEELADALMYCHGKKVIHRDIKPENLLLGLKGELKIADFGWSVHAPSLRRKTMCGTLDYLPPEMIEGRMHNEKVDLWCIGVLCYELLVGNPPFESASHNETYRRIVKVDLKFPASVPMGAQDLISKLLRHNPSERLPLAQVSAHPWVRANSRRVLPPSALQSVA


Legend:
[1] = target: T1, Borealin (endogenous), Q53HL2; experiment: LacO-LacI tethering assay, immunofluorescence in U-2 OS-LacO Haspin CM cells; conditions: chain shown with the change, n = 21 (mutant), n = 22 (parent), red bar = mean, read off a plot
[2] = target: T2, Aurora B (endogenous), Q96GD4; experiment: as above; conditions: chain shown with the change, red bar = mean, read off a plot

response ([1]; parent: est. 1.4) [a.u.]	response ([2]; n = 23 (mutant), n = 10 (parent), parent: est. 1.2) [a.u.]	response ([1]; parent: est. 1.2) [a.u.]	response ([2]; n = 22 (mutant), n = 20 (parent), parent: est. 0.85) [a.u.]	Binder
0.25	0.15	–	–	Sgo1_(159–240)-LacI-GFP, Q5FBB7 V188A; S189A; V190A; R191A (protein) QIPTIPQDTLGVDFDSGEAKSTDNVLPRTAAAASSLKKHCNSICQFDSLDDFETSHLAGKSFEFERVGFLDPLVNMHIPENV
–	–	0.18	0.1	Sgo1_(130–280)-LacI-GFP, Q5FBB7 V188A; S189A; V190A; R191A (protein) RNLFVKDLPQIPLEETELPGQGESFQIEDQIPTIPQDTLGVDFDSGEAKSTDNVLPRTAAAASSLKKHCNSICQFDSLDDFETSHLAGKSFEFERVGFLDPLVNMHIPENVQHNACQWSKDQVNLSPKLIQPGTFTKTKEDILESKSEQTK
